For experiment [1], the target named is HLA-B*53:01. As to the kind of experiment: IEDB peptide-MHC binding, purified MHC/competitive/radioactivity; filed as Kd, often an IC50 or EC50 that approximates it; ≥ and ≤ were set here for values at or beyond the usual limits of such assays.
Experiment [2] has as its target HLA-B*51:01. The experiment is described as above.
Experiment [3] addresses HLA-A*24:02. Briefly: IEDB peptide-MHC binding, purified MHC/competitive/fluorescence; ≥ and ≤ were set here for values at or beyond the usual limits of such assays.
Experiment [4] deals with HLA-A*26:01. As to the kind of experiment: IEDB peptide-MHC binding, purified MHC/direct/fluorescence; filed as Kd, often an IC50 or EC50 that approximates it; ≥ and ≤ were set here for values at or beyond the usual limits of such assays.
Experiment [5] has as its target HLA-B*27:05. The experiment is described as above.
In experiment [6] the target is HLA-B*58:01. The description is as above.
The target in experiment [7] is HLA-B*44:02. The experiment is described as above.
In experiment [8] the target is HLA-A*01:01. Described as above.
Experiment [9] deals with HLA-A*03:01. The description is as above.
The target of experiment [10] is HLA-A*31:01. The description is as above.
The target in experiment [11] is HLA-B*15:01. The experiment is described as above.
For experiment [12], the target named is HLA-A*11:01. Described as above.
Experiment [13] deals with HLA-B*07:02. The experiment is described as above.
Experiment [14] has as its target HLA-B*40:01. Described as above.
For experiment [15], the target named is HLA-A*69:01. The description is as above.
In experiment [16] the target is HLA-B*08:01. The description is as above.
Experiment [17] has as its target HLA-A*02:01. Described as above.
Experiment [18] concerns the target HLA-A*02:01. As to the kind of experiment: IEDB peptide-MHC binding, purified MHC/competitive/fluorescence; ≥ and ≤ were set here for values at or beyond the usual limits of such assays.
For experiment [19], the target named is HLA-B*07:02. Briefly: IEDB peptide-MHC binding, purified MHC/competitive/radioactivity; filed as Kd, often an IC50 or EC50 that approximates it; ≥ and ≤ were set here for values at or beyond the usual limits of such assays.
For experiment [20], the target named is HLA-B*18:01. Briefly: IEDB peptide-MHC binding, purified MHC/direct/fluorescence; filed as Kd, often an IC50 or EC50 that approximates it; ≥ and ≤ were set here for values at or beyond the usual limits of such assays.
Experiment [21] has as its target HLA-A*24:03. The description is as above.
For experiment [22], the target named is HLA-A*02:12. The description is as above. The settings on record: source organism: Mycobacterium tuberculosis str. Haarlem.
Experiment [23] concerns the target HLA-B*15:17. As to the kind of experiment: IEDB peptide-MHC binding, purified MHC/competitive/fluorescence; filed as Kd, often an IC50 or EC50 that approximates it; ≥ and ≤ were set here for values at or beyond the usual limits of such assays. As to conditions: source organism: Homo sapiens.
For experiment [24], the target named is HLA-A*69:01. Described as above. As to conditions: source organism: Homo sapiens.
For experiment [25], the target named is HLA-B*39:01. Described as above. The settings on record: source organism: Homo sapiens.
The mark [26] stands for this setting: source organism: Dengue virus 2 Jamaica/1409/1983.
Where [27] appears, read: source organism: Sudan ebolavirus.
The mark [28] stands for this setting: source organism: Giardia lamblia ATCC 50803.
Setting [29] is: source organism: Brucella abortus.
The mark [30] stands for this setting: source organism: Zaire ebolavirus.
Setting [31] is: source organism: Vaccinia virus WR.
The mark [32] stands for this setting: source organism: Salmonella enterica subsp. enterica serovar Typhi.
Setting [33] is: source organism: Dengue virus 4 Philippines/H241/1956.
Where [34] appears, read: source organism: Dengue virus 1 Brazil/97-11/1997.
Setting [35] is: source organism: Dengue virus 3 Sri Lanka/1266/2000.
The mark [36] stands for this setting: source organism: Orthohantavirus hantanense.
[37] abbreviates: source organism: Dengue virus 3 Martinique/1243/1999.
Setting [38] is: source organism: Coxiella burnetii.
Setting [39] is: source organism: Vibrio parahaemolyticus.
Setting [40] is: source organism: Pseudomonas viridiflava.

Our source for the Kd and IC50 values is the Immune Epitope Database (IEDB).

The term Kd denotes the free concentration of one partner at which half of the binding sites on the other are occupied at equilibrium, for simple one-to-one binding. As a reminder, the IC50 is the concentration that gives 50% inhibition. Read a low IC50 as higher potency.

A value given as a limit tells only on which side of the number the result lay.

Regarding MPSVIEKMET, the Kd in experiment [1] (setting [26]) was found to be 1.61 µM; in [2] (setting [26]) it was 9.48 µM.

Turning to PYFGPGAEG, the IC50 in [3] (setting [27]) is not below 114 µM.

For the sequence IHKPRPPAT, the Kd in experiment [4] (setting [28]), in [5] (setting [28]), in experiment [6] (setting [28]), in experiment [7] (setting [28]), in experiment [8] (setting [28]) and in [9] (setting [28]) was not below 20 µM in each case. The Kd in experiment [10] (setting [28]), in [11] (setting [28]), in [12] (setting [28]), in experiment [13] (setting [28]), in experiment [14] (setting [28]) and in experiment [15] (setting [28]) was not below 20 µM in each case. Moreover, the dissociation constant Kd in [16] (setting [28]) and in experiment [17] (setting [28]) was not below 20 µM throughout.

For the sequence AENGWGFYF, the Kd is not below 20 µM in [4] (setting [29]); not below 20 µM in experiment [5] (setting [29]); not below 20 µM in experiment [6] (setting [29]); 6.42 µM in experiment [7] (setting [29]); not below 20 µM in experiment [8] (setting [29]); not below 20 µM in experiment [9] (setting [29]). The Kd in experiment [10] (setting [29]) was not below 20 µM; in experiment [11] (source organism: Brucella suis), 0.285 µM; in experiment [12] (setting [29]), not below 20 µM; in [13] (setting [29]), not below 20 µM; in [14] (source organism: Brucella suis) it was 0.0289 µM; in experiment [15] (setting [29]), not below 20 µM. Further, the Kd in experiment [16] (setting [29]) and in experiment [17] (setting [29]) was not below 20 µM each time.

For DPSSGYYST, the IC50 in experiment [3] (setting [30]) was not below 151 µM.

For the sequence GGILPWTKI, the IC50 was not below 78.1 µM in [3] (setting [31]) and not below 125 µM in experiment [18] (setting [31]).

Regarding MSRRRIYVL, the dissociation constant Kd in experiment [16] (source organism: Cowpox virus) came to 0.006 µM.

For the sequence QHSTTLFKI, the figures for the half-inhibitory concentration (IC50) in [3] (setting [27]) and in experiment [18] (setting [27]) were 2.12 µM and not below 80 µM, respectively.

With REILFHNTM, the equilibrium dissociation constant (Kd) in [4] (setting [32]), in [5] (setting [32]), in [6] (setting [32]), in [7] (setting [32]), in experiment [8] (setting [32]) and in [9] (setting [32]) was not below 20 µM throughout. Further, the Kd was not below 20 µM in experiment [10] (setting [32]); 0.18 µM in experiment [11] (setting [32]); not below 20 µM in [12] (setting [32]); not below 20 µM in experiment [13] (setting [32]); 0.00566 µM in [14] (setting [32]); not below 20 µM in experiment [15] (setting [32]). For the same sequence, the equilibrium dissociation constant (Kd) was 1.31 µM in experiment [16] (setting [32]) and not below 20 µM in experiment [17] (setting [32]).

LPTYLSSRA: in [2] (setting [33]), the Kd was not below 23.7 µM.

Regarding DPRRCLKPVI, the dissociation constant Kd in [2] (setting [34]) was 10.5 µM.

On to RWGGTCHIL, for which the IC50 in [3] (setting [30]) came out at 0.0556 µM.

In the case of TPFAEYTNSV, the Kd in experiment [2] (setting [33]) is 0.813 µM; in experiment [19] (setting [33]), 0.0729 µM.

On to LPAALAFHL, for which the Kd is 0.0107 µM in [1] (setting [35]), 0.828 µM in [2] (setting [35]) and 0.0724 µM in [19] (setting [35]).

For the sequence WEPPERHIL, the Kd in experiment [20] (setting [28]) is not above 0.001 µM; in experiment [14] (setting [28]), not below 20 µM.

The sequence SFLLMLCLH returned an IC50 in experiment [3] (setting [30]) not below 266 µM.

On to SPKRLSAAIG, for which, in experiment [19] (setting [34]), the Kd turned out to be 0.125 µM.

As for VFLPNPAFI, the concentration for half-maximal inhibition (IC50) in experiment [3] (source organism: Variola virus) is 18.5 µM; in experiment [18] (source organism: Variola virus), 0.715 µM.

In the case of KGRVGRVNP, in experiment [3] (source organism: Variola virus), the half-inhibitory concentration (IC50) was 9.76 µM.

In turn, ATPPSLVHF returned a dissociation constant (Kd) in experiment [21] (setting [28]) of 0.152 µM.

As to RELGLDISL, the dissociation constant Kd in experiment [7] (setting [36]) is 3.28 µM; in experiment [20] (setting [36]), 0.0027 µM; in experiment [14] (setting [36]) it was 0.0012 µM.

Turning to VPMSTYGWNI, the Kd in [1] (setting [37]) came out at 0.0445 µM; in experiment [2] (setting [37]), 0.0917 µM; in experiment [19] (setting [37]), 0.0605 µM.

Sequence TYVQLESRF had a concentration for half-maximal inhibition (IC50) in experiment [3] (setting [30]) of 56.4 µM.

For the sequence FLLQLNETI, the 50% inhibitory concentration (IC50) was determined as 0.862 µM in [3] (setting [30]) and 0.33 µM in [18] (setting [30]).

Turning to RPTPKGTVMD, the Kd in experiment [19] (source organism: Dengue virus 3 Singapore/8120/1995) turned out to be 0.061 µM.

On to YYYNFSEDL, for which the Kd was not below 20 µM in [4] (setting [38]); not below 20 µM in [5] (setting [38]); not below 20 µM in experiment [6] (setting [38]); 0.00105 µM in experiment [21] (setting [38]); not below 20 µM in experiment [7] (setting [38]); not below 20 µM in experiment [8] (setting [38]). Moreover, the Kd in experiment [9] (setting [38]), in experiment [11] (setting [38]), in experiment [12] (setting [38]), in [13] (setting [38]), in [14] (setting [38]) and in experiment [15] (setting [38]) was not below 20 µM in each case. Moreover, the dissociation constant (Kd) in [16] (setting [38]) and in [17] (setting [38]) was not below 20 µM throughout.

For the sequence QPQWIAASII, the figures for the dissociation constant Kd in [2] (setting [33]) and in experiment [19] (setting [33]) were 0.719 µM and 0.291 µM, respectively.

In the case of EIPGSPGSY, the Kd is 0.105 µM in experiment [4] (setting [39]); not below 20 µM in experiment [5] (setting [39]); not below 20 µM in experiment [6] (setting [39]); not below 20 µM in experiment [7] (setting [39]); not below 20 µM in experiment [8] (setting [39]); not below 20 µM in experiment [9] (setting [39]). Moreover, the Kd in experiment [10] (setting [39]), in experiment [11] (setting [39]), in [12] (setting [39]), in experiment [13] (setting [39]), in experiment [14] (setting [39]) and in experiment [15] (setting [39]) was not below 20 µM throughout. Also, the equilibrium dissociation constant (Kd) in experiment [16] (setting [39]) and in experiment [17] (setting [39]) was not below 20 µM each time.

On to WLSQTTLSV, for which the Kd in experiment [22] came out at 0.003 µM.

For GPSPSHKSV, the dissociation constant (Kd) in experiment [23], in experiment [24] and in experiment [25] was not below 20 µM in each case.

Turning to RPGYHTQTA, the Kd in [19] (setting [26]) amounted to 0.00961 µM.

On to KSSFFVWVI, for which the IC50 in experiment [3] (setting [27]) turned out to be 0.0694 µM; in experiment [18] (setting [27]) it was 0.274 µM.

Consider NPWMEDKTPV, for which the Kd in experiment [19] (setting [26]) came to 0.0557 µM.

Consider TPRGTVMDII, for which the values for the equilibrium dissociation constant (Kd) in experiment [2] (setting [26]) and in experiment [19] (setting [26]) were 2.42 µM and 0.0062 µM, respectively.

With DYDQRDYGF, the dissociation constant (Kd) in experiment [4] (setting [40]), in experiment [5] (setting [40]), in experiment [6] (setting [40]), in [21] (setting [40]), in experiment [8] (setting [40]) and in [9] (setting [40]) was not below 20 µM throughout. In addition, the Kd in [10] (setting [40]), in experiment [11] (setting [40]), in experiment [12] (setting [40]), in experiment [13] (setting [40]), in [14] (setting [40]) and in experiment [15] (setting [40]) was not below 20 µM each time. Also, the Kd in [16] (setting [40]) and in experiment [17] (setting [40]) was not below 20 µM each time.

In the case of PPFGDSYIV, in [2] (setting [33]), the dissociation constant Kd was not below 23.1 µM.

For CLHHAYQGD, the 50% inhibitory concentration (IC50) in [3] (setting [30]) was not below 92 µM; in experiment [18] (setting [30]), not below 119 µM.
